Source: patent US5708158, “Nuclear factors and binding assays” (Tularik Inc., dated 1998)

Target: T1, NFATc-589 (translated in vitro) (human)
T1 chain: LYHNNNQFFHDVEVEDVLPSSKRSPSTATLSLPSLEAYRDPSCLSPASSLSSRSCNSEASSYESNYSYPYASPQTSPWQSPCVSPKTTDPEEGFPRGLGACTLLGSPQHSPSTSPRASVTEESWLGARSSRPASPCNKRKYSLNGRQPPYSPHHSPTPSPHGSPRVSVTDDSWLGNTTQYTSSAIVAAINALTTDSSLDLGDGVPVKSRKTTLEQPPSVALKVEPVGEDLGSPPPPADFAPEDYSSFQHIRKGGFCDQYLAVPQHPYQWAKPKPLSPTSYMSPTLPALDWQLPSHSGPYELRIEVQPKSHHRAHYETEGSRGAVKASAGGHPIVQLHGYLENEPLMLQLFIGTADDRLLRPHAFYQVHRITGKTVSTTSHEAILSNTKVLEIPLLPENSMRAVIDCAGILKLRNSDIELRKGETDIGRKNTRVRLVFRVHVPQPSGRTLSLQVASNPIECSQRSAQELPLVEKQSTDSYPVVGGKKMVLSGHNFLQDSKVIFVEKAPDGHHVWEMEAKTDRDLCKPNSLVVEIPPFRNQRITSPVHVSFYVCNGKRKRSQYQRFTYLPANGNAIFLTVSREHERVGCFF
Test: gel mobility shift assay with two co-translated NFATc versions of different size; test for dimers on DNA
Description: After determining that NFAT rel domains were monomers in solution, we then considered the possibility that NFAT proteins might form dimers when bound to DNA. To address this question we carried out gel mobility shift assays with two different sized versions of NFATc translated in vitro (Hope and Struhl 1987). The shorter version contains the rel similarity region and a small amount of flanking residues and is referred to as NFATc-309. This construct is equivalent to the one that was expressed in *E. coli*. The larger version, NFATc-589, contains additional N-terminal sequences. When expressed individually in a rabbit reticulocyte lysate both versions of NFATc were active and produced protein-DNA complexes with different mobilities. When the two different NFATc proteins were mixed by co-translation the same protein-DNA complexes were apparent and no intermediate species was detectable, as would be expected if the proteins were forming dimers on the DNA.
Electrophoretic mobility shift assays were performed with the indicated amounts of proteins in 50 mM KCl, 25 mM HEPES, 0.05 mM EDTA, 5% glycerol, 1 mM DTT with […] of poly(dI-dC) and 100 ng of BSA. The binding reactions and electrophoresis were carried out at room temperature. The samples were run on a 5% polyacrylamide, 0.5× TBE gel at 200 V.

- binding result: no binding
B1: NFATc-309 (translated in vitro) (other)
chain: MSPTLPALDWQLPSHSGPYELRIEVQPKSHHRAHYETEGSRGAVKASAGGHPIVQLHGYLENEPLMLQLFIGTADDRLLRPHAFYQVHRITGKTVSTTSHEAILSNTKVLEIPLLPENSMRAVIDCAGILKLRNSDIELRKGETDIGRKNTRVRLVFRVHVPQPSGRTLSLQVASNPIECSQRSAQELPLVEKQSTDSYPVVGGKKMVLSGHNFLQDSKVIFVEKAPDGHHVWEMEAKTDRDLCKPNSLVVEIPPFRNQRITSPVHVSFYVCNGKRKRSQYQRFTYLPANGNAIFLTVSREHERVGCFF
